T1: recombinant human IL4 (human, UniProt P05112 25-153)
T1 construct: Bought protein
T1 sequence (looked up): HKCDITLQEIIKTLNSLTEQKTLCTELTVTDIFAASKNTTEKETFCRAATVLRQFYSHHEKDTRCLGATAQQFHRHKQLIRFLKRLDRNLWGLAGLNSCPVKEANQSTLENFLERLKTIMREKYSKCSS

T2: CD123 (UniProt P26951 19-305, limits assumed)
T2 sequence (looked up): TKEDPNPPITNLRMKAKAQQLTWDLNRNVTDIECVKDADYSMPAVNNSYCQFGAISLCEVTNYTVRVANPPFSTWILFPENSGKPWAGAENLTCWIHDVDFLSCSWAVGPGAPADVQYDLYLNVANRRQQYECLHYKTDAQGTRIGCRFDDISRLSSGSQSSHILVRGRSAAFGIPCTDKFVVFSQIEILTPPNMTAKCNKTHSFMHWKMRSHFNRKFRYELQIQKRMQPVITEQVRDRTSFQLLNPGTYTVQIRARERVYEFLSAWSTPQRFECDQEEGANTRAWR

T3: CD3
T3 chain 1: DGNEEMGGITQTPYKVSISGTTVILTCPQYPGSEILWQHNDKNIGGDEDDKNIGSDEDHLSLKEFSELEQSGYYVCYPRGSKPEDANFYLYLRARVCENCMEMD
T3 chain 2: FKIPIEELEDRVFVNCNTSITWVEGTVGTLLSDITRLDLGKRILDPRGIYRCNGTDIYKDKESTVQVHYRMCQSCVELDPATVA


Assays:
recombinant human IL4 = target: T1, recombinant human IL4; assay: SPR (Biacore)
CD123 = target: T2, CD123; assay: SPR (Biacore), CD123 as analyte
CD3 = target: T3, CD3; assay: SPR (Biacore), CD3 as analyte

Row | binding result (recombinant human IL4) | Kd (CD123) | koff (CD123) | kon (CD123) | Kd (CD3) | koff (CD3) | kon (CD3) | Binder
1 | binds | – | – | – | – | – | – | F(ab')2-like antibody with ECH2 replacing the hinge region, anti-IL4 (hu8D4-8) CH1/kappa Fab and anti-IL13 (huBB13) MCH2 Fab (Example 7) (bispecific antibody, also called pseudo hinge-CH2E-hybrid-Fab2) heavy 1: VQLQQSGPELVKPGASVKISCKASGYSFTSYWIHWIKQRPGQGLEWIGMIDPSDGETRLNQRFQGRATLTVDESTSTAYMQLRSPTSEDSAVYYCTRLKEYGNYDSFYFDVWGAGTLVTVSSASTKGPSVFPLAPSSKSTSGGTAALGCLVKDYFPEPVTVSWNSGALTSGVHTFPAVLQSSGLYSLSSVVTVPSSSLGTQTYICNVNHKPSNTKVDKKVEPKSCGSGSGSVASRDFTPPTVKILQSSCDGGGHFPPTIQLLCLVSGYTPGTIQITWLEDGQVMDVDLSTASTTQEGELASTQSELTLSQKHWLSDRTYTCQVTYQGHTFEDSTKKCA light 1: DIQMTQSPASLSVSVGDTITLTCHASQNIDVWLSWFQQKPGNIPKLLIYKASNLHTGVPSRFSGSGSGTGFTLTISSLQPEDIATYYCQQAHSYPFTFGGGTKLEIKRTVAAPSVFIFPPSDEQLKSGTASVVCLLNNFYPREAKVQWKVDNALQSGNSQESVTEQDSKDSTYSLSSTLTLSKADYEKHKVYACEVTHQGLSSPVTKSFNRGEC heavy 2: EVQLKESGPGLVAPGGSLSITCTVSGFSLTDSSINWVRQPPGKGLEWLGMIWGDGRIDYADALKSRLSISKDSSKSQVFLEMTSLRTDDTATYYCARDGYFPYAMDFWGQGTSVTVSSGSGSGSVIAELPPKVSVFVPPRDGFFGNPRKSKLICQATGFSPRQIQVSWLREGKQVGSGVTTDQVQAEAKESGPTTYKVTSTLTIKESDWLGQSMFTCRVDHRGLTFQQQASSMCVPGSGSGSVASRDFTPPTVKILQSSCDGGGHFPPTIQLLCLVSGYTPGTIQITWLEDGQVMDVDLSTASTTQEGELASTQSELTLSQKHWLSDRTYTCQVTYQGHTFEDSTKKCAGSHHHHHHHH light 2: DIVLTQSPASLAVSLGQRATISCRASESVDSYGQSYMHWYQQKAGQPPKLLIYLASNLESGVPARFSGSGSRTDFTLTIDPVQAEDAATYYCQQNAEDSRTFGGGTKLEIKRTVIAELPPKVSVFVPPRDGFFGNPRKSKLICQATGFSPRQIQVSWLREGKQVGSGVTTDQVQAEAKESGPTTYKVTSTLTIKESDWLGQSMFTCRVDHRGLTFQQQASSMCVP
2 | – | 0.0838 nM | 3.77e-05 s⁻¹ | 450000 M⁻¹ s⁻¹ | 5.71 nM | 0.0009 s⁻¹ | 158000 M⁻¹ s⁻¹ | antibody in Bivalent Fab configuration, MCH2 domain of one Fab-like fragment (CD3) linked to a variable domain of the other Fab (CD123) (Example 5) (bispecific antibody, also called bispecific bivalent Fab; bivalent bispecific Fab fragment) light 1: DIVMTQTPLSLSVTPGQPASISCKSSQSLVHNNANTYLSWYLQKPGQSPQSLIYKVSNRFSGVPDRFSGSGSGTDFTLKISRVEAEDVGVYYCGQGTQYPFTFGSGTKVEIKRTVIAELPPKVSVFVPPRDGFFGNPRKSKLICQATGFSPRQIQVSWLREGKQVGSGVTTDQVQAEAKESGPTTYKVTSTLTIKESDWLGQSMFTCRVDHRGLTFQQNASSMCVP heavy: QVQLVESGGGVVQPGRSLRLSCAASGFTFTKAWMHWVRQAPGKQLEWVAQIKDKSNSYATYYADSVKGRFTISRDDSKNTLYLQMNSLRAEDTAVYYCRGVYYALSPFDYWGQGTLVTVSSGGVIAELPPKVSVFVPPRDGFFGNPRKSKLICQATGFSPRQIQVSWLREGKQVGSGVTTDQVQAEAKESGPTTYKVTSTLTIKESDWLGQSMFTCRVDHRGLTFQQNASSMCVPGGGSEVQLVQSGAEVKKPGESLKISCKGSGYSFTDYYMKWARQMPGKGLEWMGDIIPSSGATFYNQKFKGQVTISADKSISTTYLQWSSLKASDTAMYYCARSHLLRASWFAYWGQGTMVTVSSASTKGPSVFPLAPSSKSTSGGTAALGCLVKDYFPEPVTVSWNSGALTSGVHTFPAVLQSSGLYSLSSVVTVPSSSLGTQTYICNVNHKPSNTKVDKKVEPKSCDKTHTHHHHHH light 2: not shown
3 | binds | – | – | – | – | – | – | bispecific Fab-like fragment in the CODV bivalent Fab configuration (ECH2), anti-IL13 (huBB13) x anti-IL4 (hu8D4-8) (Example 6) (bispecific antibody, An 8x histidine tag was added for purification; also called CH2E-pseudo-CODV antibody) chain 1: EVQLKESGPGLVAPGGSLSITCTVSGFSLTDSSINWVRQPPGKGLEWLGMIWGDGRIDYADALKSRLSISKDSSKSQVFLEMTSLRTDDTATYYCARDGYFPYAMDFWGQGTSVTVSSSQVQLQQSGPELVKPGASVKISCKASGYSFTSYWIHWIKQRPGQGLEWIGMIDPSDGETRLNQRFQGRATLTVDESTSTAYMQLRSPTSEDSAVYYCTRLKEYGNYDSFYFDVWGAGTLVTVSSRTASTKGPVASRDFTPPTVKILQSSCDGGGHFPPTIQLLCLVSGYTPGTIQITWLEDGQVMDVDLSTASTTQEGELASTQSELTLSQKHWLSDRTYTCQVTYQGHTFEDSTKKCAGSHHHHHHHH chain 2: DIQMTQSPASLSVSVGDTITLTCHASQNIDVWLSWFQQKPGNIPKLLIYKASNLHTGVPSRFSGSGSGTGFTLTISSLQPEDIATYYCQQAHSYPFTFGGGTKLEIKGQPKAAPDIVLTQSPASLAVSLGQRATISCRASESVDSYGQSYMHWYQQKAGQPPKLLIYLASNLESGVPARFSGSGSRTDFTLTIDPVQAEDAATYYCQQNAEDSRTFGGGTKLEIKTKGPSRTVASRDFTPPTVKILQSSCDGGGHFPPTIQLLCLVSGYTPGTIQITWLEDGQVMDVDLSTASTTQEGELASTQSELTLSQKHWLSDRTYTCQVTYQGHTFEDSTKKCA
